Assay results reported in patent publication US20250206837A1 (ELIXIRON IMMUNOTHERAPEUTICS HONG KONG, published 2025).

Tests used:
[1] = biological target: full-length human CD36-Flag overexpressed on stable F293 cells (human, UniProt P16671 2-472); assay: cell-based or functional assay
[2] = biological target: mouse CD36-His overexpressed on stable F293 cells (mouse, UniProt Q08857 1-472); assay: cell-based or functional assay
[3] = biological target: T1, Recombinant His-tagged human CD36.ECD protein (Sino Biological) (human, UniProt P16671 30-439); assay: ELISA, coated human CD36.ECD (FIG. 1C)
T1 construct: Bought protein; also called hCD36.ECD; hCD36; not shown: His tag
Description: (§1) ELISA materials and methods: Recombinant His-tagged human CD36.ECD protein or His-tagged mouse CD36.ECD protein (both from Sino Biological) was immobilized on 96 well microtiter plate at a concentration of 1 μg/mL in Coating Solution (SeraCare) overnight at 4° C. The wells were washed with wash solution (0.05% Tween20 in PBS) and blocked with 1% BSA in PBS. Serial dilutions of anti-CD36 antibodies were added to wells. After incubation at 37° C. for 1 h, the wells were washed with wash solution. Peroxidase-conjugated Goat anti-human kappa Light chain antibody (Sigma) was applied to each well at 37° C. for 1 h incubation. After washing, the wells were developed with TMB substrate for 5-10 min at room temperature and then stopped with 1 N HCl. Thereafter absorbance was measured at 450 nm and 650 nm. EC50 values were calculated through GraphPad Prism7.
(§2) ELISA data plots showing binding of anti-CD36 antibodies to recombinant human CD36.ECD or mouse CD36.ECD coated on ELISA plates are depicted in FIG. 1C and 1D, respectively.

[4] = biological target: T2, Recombinant His-tagged mouse CD36.ECD protein (Sino Biological) (mouse, UniProt Q08857 30-439); assay: ELISA, coated mouse CD36.ECD (FIG. 1D)
T2 construct: Bought protein; also called mCD36.ECD; mCD36; not shown: His tag
Description: as §1, §2

[5] = biological target: T1, Recombinant His-tagged human CD36.ECD …; assay: ELISA, coated human CD36.ECD (FIG. 2A)
Description: as §1
The competitor anti-CD36 antibody ONA, which is derived from clone “ONA-0-v1” as disclosed in WO2021176424A1 in hIgG4-S228P-FALA format.

[6] = biological target: T1, Recombinant His-tagged human CD36.ECD …; assay: ELISA, coated His-tagged human CD36.ECD
Description: as §1
(§3) Results: ELISA data plots showing binding to either human CD36.ECD or mouse CD36.ECD are depicted in FIG. 1A and FIG. 1B, respectively, for the full-length IgG anti-CD36 antibody 12P109, and additional positive clones, 12P102, 12P103, 12P104, 12P105, 12P106, 12P107, 12P110 and 12P212.

[7] = biological target: T2, Recombinant His-tagged mouse CD36.ECD …; assay: ELISA, coated His-tagged mouse CD36.ECD
Description: as §1, §3

[8] = biological target: T1, Recombinant His-tagged human CD36.ECD …; assay: BLI (Octet), antibody on AHC sensor, His-tagged hCD36.ECD in solution, 1:1 fit
Description: BLI assay materials and method: Kinetic rate constants, ka and kd, for binding of the anti-CD36 antibodies to human CD36 were measured by Bio-Layer Interferometry (BLI) (ForteBio Octet RED96). […] Rate constants were calculated by curve fitting analyses (1:1 Langmuir model) of binding response with a 2.5-minute association and 5-minute dissociation interaction time.

T1 sequence (P16671 30-439 limits assumed): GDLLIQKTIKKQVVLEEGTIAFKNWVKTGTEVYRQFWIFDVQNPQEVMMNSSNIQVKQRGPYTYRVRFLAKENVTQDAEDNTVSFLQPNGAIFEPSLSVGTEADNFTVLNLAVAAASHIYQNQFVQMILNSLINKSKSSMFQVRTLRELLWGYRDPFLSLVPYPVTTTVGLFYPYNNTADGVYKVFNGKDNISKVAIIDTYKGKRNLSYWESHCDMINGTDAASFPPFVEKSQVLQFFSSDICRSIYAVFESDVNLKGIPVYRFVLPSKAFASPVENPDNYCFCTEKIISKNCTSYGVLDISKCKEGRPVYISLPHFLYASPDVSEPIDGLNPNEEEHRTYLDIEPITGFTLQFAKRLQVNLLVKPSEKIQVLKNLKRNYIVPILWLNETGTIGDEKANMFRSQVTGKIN
T2 sequence (Q08857 30-439 limits assumed): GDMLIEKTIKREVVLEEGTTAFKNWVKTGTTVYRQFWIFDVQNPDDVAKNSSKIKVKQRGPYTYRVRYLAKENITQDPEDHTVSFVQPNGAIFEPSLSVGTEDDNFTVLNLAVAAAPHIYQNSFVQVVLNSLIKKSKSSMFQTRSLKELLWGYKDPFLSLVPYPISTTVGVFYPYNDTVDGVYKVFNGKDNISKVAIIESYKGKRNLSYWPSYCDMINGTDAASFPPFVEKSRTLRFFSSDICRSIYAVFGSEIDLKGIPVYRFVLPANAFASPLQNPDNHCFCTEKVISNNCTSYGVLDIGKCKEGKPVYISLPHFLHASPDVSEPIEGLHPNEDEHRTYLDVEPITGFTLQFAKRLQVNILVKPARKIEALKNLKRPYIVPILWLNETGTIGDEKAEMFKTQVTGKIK
Sequence of mouse CD36-His overexpressed on stable F293 cells (Q08857 whole entry, the tested form may be a part): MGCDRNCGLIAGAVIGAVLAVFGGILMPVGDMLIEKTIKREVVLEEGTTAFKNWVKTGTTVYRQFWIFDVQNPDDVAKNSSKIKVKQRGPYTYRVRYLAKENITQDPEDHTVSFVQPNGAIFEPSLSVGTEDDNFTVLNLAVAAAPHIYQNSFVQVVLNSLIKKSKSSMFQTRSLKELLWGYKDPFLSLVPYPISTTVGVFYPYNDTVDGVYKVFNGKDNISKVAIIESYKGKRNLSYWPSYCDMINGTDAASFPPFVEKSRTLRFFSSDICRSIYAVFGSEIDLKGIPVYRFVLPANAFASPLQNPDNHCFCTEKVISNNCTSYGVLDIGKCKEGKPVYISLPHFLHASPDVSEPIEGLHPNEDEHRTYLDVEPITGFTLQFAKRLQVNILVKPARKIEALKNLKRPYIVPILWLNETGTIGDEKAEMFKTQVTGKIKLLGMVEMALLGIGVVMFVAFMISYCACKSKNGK
Sequence of full-length human CD36-Flag overexpressed on stable F293 cells (P16671 2-472): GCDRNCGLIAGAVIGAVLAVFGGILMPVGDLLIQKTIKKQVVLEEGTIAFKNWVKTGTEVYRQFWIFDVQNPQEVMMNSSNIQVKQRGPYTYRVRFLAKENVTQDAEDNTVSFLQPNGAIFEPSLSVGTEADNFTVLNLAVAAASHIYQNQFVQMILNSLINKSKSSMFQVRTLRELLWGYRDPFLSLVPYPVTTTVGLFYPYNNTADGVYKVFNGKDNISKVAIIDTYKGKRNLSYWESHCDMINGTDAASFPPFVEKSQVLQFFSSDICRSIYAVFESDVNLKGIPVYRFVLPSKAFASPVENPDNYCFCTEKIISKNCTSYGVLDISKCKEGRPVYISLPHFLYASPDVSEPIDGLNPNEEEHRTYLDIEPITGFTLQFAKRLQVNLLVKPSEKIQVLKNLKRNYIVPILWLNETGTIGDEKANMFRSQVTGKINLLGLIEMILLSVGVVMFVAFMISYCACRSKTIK

B1: 12P109 (antibody, human IgG1, kappa, N297A, V domains shown)
VH: EVQLVESGGGLVQPGGSLRLSCAASGFTISSFGIHWVRQAPGKGLEWVAWIAPYGGYTYYADSVKGRFTISADTSKNTAYLQMNSLRAEDTAVYYCARSFFGYFDYWGQGTLVTVSS
VL: DIQMTQSPSSLSASVGDRVTITCRASQDVSNWVAWYQQKPGKAPKLLISTSTSLYSGVPSRFSGSGSGTDFTLTISSLQPEDFATYYCQQYYTLPFTFGQGTKVEIKR
notes: Full-length human IgG1-N297A, kappa; also called 12P109 (IgG1)
oxLDL uptake IC50 (nM), F293/hCD36 [1]: 0.401 nM | oxLDL uptake IC50 (nM), F293/mCD36 [2]: 0.86 nM | EC50 [3]: 43.2 nM | EC50 [4]: 9.45 nM | EC50 [5]: 1.53 nM | EC50 [6]: 0.213 nM | EC50 [7]: 0.137 nM | Kd [8]: 18.5 nM | koff [8]: 0.00963 s⁻¹ | kon [8]: 522000 M⁻¹ s⁻¹
